Assay results published in article PMC2805716, “Critical Structural and Functional Roles for the N-Terminal Insertion Sequence in Surfactant Protein B Analogs” (PLoS ONE, 2010).

T1: Cys-MB (Mini-B with a cysteine added to its N-terminus, chip-linked) (human)
T1 construct: cysteine added to the N-terminus to link the peptide to the thiol Biacore chip; surfactant protein B (SP-B), human, residues 8-25; numbers count on: the mature protein (79 residues); surfactant protein B (SP-B), human, residues 63-78; Immobilised on the SPR chip; also called chipped MB; N-terminal Cys-MB
T1 chain: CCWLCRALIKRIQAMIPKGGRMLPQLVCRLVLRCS

T2: Cys-S-MB (Super Mini-B with a cysteine added to its N-terminus, chip-linked) (human)
T2 construct: cysteine added to the N-terminus to link the peptide to the thiol Biacore chip; surfactant protein B (SP-B), human, residues 1-25; numbers count on: the mature protein (79 residues); surfactant protein B (SP-B), human, residues 63-78; Immobilised on the SPR chip; also called chipped S-MB; N-terminal Cys-S-MB
T2 chain: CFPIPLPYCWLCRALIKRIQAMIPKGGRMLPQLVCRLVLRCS


Experiments:
[1] = ESR, ref [30], cited from earlier work
Source text: Although the “10 nsec” MD simulation of dimer S-MB provides a reasonable framework to account for our SDS-PAGE and SPR results (Figs. 8 and 10), it is worthwhile to consider other structural models by which the N-terminal insertion sequence may promote the self-association of S-MB. One possible alternative is that oligomeric S-MB may be due to the N-terminal sequence (residues 1-7) forming β-sheet. The N-terminal SP-B(1–9) (Fig. 2) was earlier proposed to act as a ‘biochemical Velcro®,’ facilitating in vivo either the aggregation of SP-B or the interactions of SP-B with SP-C [50]. In support ...

[2] = lipid monolayers containing palmitic acid; ref [31], [32]; cited from earlier work
Source text: (§1) Previous structural and functional studies with synthetic peptides representing the N- and C-terminal regions of SP-B further support the hypothesis that these charged amphipathic helices participate in surfactant activities. […] The cationic N-terminus of SP-B may here interact with anionic lipids to remove the driving force for lipid squeeze-out from the surface film, [32]. In additional studies, SP-B(1–25 ...

[3] = tested on: surfactant-deficient animal models; conditions: ref [34]–[37]; cited from earlier work
Source text: as §1

[4] = molecular target: the molecule itself; experiment: SDS-PAGE; 4 µg peptide in 8 µl buffer (50 mM MOPS, 50 mM Tris, pH 7.7, 0.1% SDS, 1 mM EDTA), neither heated nor reduced; 16% acrylamide gel; Coomassie blue and silver staining; molecular weight markers 2.5-16.9 kDa
[5] = molecular target: T1, Cys-MB (Mini-B with a cysteine added to …); experiment: SPR; Biacore 3000; Cys-MB or Cys-S-MB linked to a thiol chip; MB or S-MB at 1 µg peptide/ml in HBS-EP (10 mM Hepes, pH 7.4, 150 mM NaCl, 3 mM EDTA, 0.005% surfactant P20) flowed over at 50 µl/min, 37°C; constants from curve fitting at the one concentration; conditions: both partners purified
[6] = molecular target: T2, Cys-S-MB (Super Mini-B with a cysteine …); experiment: as above; conditions: both partners purified

Kd [5] [nM]	koff [5] [s⁻¹]	kon [5] [M⁻¹ s⁻¹]	Kd [6] [nM]	koff [6] [s⁻¹]	kon [6] [M⁻¹ s⁻¹]	Molecule	aggregation ([1]; PBS, spin-labeled at Phe-1)	aggregation upon addition of SDS micelles ([1]; SDS micelles added)	collapse pressure of lipid monolayers [2]	oxygenation and lung compliance [3]	stoichiometry N [4]
–	–	–	–	–	–	SP-B(1–25): synthetic peptide based on the N-terminal domain of SP-B, residues 1–25 (FPIPLPYCWLCRALIKRIQAMIPKG; Pulmonary surfactant-associated protein B; UniProt P07988 201-225, looked up, fragment)	primarily aggregated in PBS	addition of SDS micelles rapidly dissociated these SP-B(1–25) aggregates	increase the collapse pressure	improved oxygenation and lung compliance	–
52.1	0.00736	141000	20.1	0.000901	44700	FPIPLPYCWLCRALIKRIQAMIPKGGRMLPQLVCRLVLRCS (numbers count on: the mature protein (79 residues); surfactant protein B (SP-B), human, residues 63-78 (C-terminal helix region); the split into the two SP-B stretches follows the stated ranges (1-7 plus 8-25, and 63-78); Oxidised form with intramolecular disulfides Cys-8 to Cys-40 and Cys-11 to Cys-34; also called S-MB; SMB; source: synthetic peptide (Fmoc solid phase, HPLC-purified, …)) [Super Mini-B]	–	–	–	–	2
